The values below come from the supplement of paper PMC10126150.

± gives the standard deviation of the averaged measurements.
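Also: ATP exposure 15 min at 22 °C before imaging.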

This data set has as its system ATP. As to the kind of experiment: switch fluorescence ratio, 500 uM ATP over buffer (Cy3 cluster intensity, sum of 5 cycles each) (fold (ratio)); higher = stronger signal-on switching upon ATP binding; sequences stand for … in TCGTCGGCAGCGTCAGATGTGTATAAGAGACAGTTTTTTTTTTTTTTTTTTTTTTTTT…TC. The settings on record: aptamer strand: ATP DNA aptamer (quencher-CACCTGGGGGAGTATTGCGGAGGAAGG + anchor), 100 nM annealed; ATP concentration: 500 uM. The method, boiled down: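 Per cluster, summed Cy3 intensity from the target cycles was divided by that from the buffer cycles to give the fluorescence ratio, then averaged per switch-domain sequence. Clusters outside 100-1000 RFU were excluded. The Cy3-labelled switching-strand clusters, on a modified Illumina MiSeq flow-cell, were annealed to 100 nM quencher-labelled ATP aptamer and imaged in selection buffer, then after 15 min with 500 uM ATP at 22 °C, for five cycles with NaOH stripping and re-annealing between them.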
As for GGCATCCAGG, the switch fluorescence ratio came out at 1.38 ± 0.064.
In the case of GGGGCTTCTT, the switch fluorescence ratio worked out at 0.9823 ± 0.0038.
Consider TGGTGTGGGC, for which the switch fluorescence ratio worked out at 0.985 ± 0.048.
As for CAAGTGAGGG, the switch fluorescence ratio was found to be 1.04 ± 0.015.
The same measure for TTGACGTGTG: 0.961 ± 0.01; for TTCCGGGAGG: 0.993 ± 0.076.
The value for CGGCGATGTT was 0.9867 ± 0.0076; that for CGAAGACGTA was 1.05 ± 0.06; that for AAAATACATT was 0.993 ± 0.039.
The same measure for GGGATCGTAT: 0.9856 ± 0.0054.
Take AGAAACGGGG: the switch fluorescence ratio was found to be 1.08 ± 0.15.
For the sequence TTTCCGCTTA, the switch fluorescence ratio was found to be 3.67 ± 1.7.
The same measure for AAAATAAGGA: 0.986 ± 0.018.
Turning to TTTAATCACC, the switch fluorescence ratio worked out at 1.02 ± 0.02.
The value for TCGTATGCGT was 1.11 ± 0.25.
The value for TGAAGTTCGG was 1.06 ± 0.025; that for TTATTAGTCA was 0.986 ± 0.041; that for GTCAGCGGTG was 0.9993 ± 0.009.
The value for TTATTTATTT was 0.975 ± 0.03.
As for GCTCAGTTTG, the switch fluorescence ratio turned out to be 0.992 ± 0.013.
The same measure for TTGCTGTGAG: 0.9762 ± 0.0012; for TGGATGCGGG: 1.02 ± 0.032.
The same measure for TTTATAGGGG: 1.08 ± 0.14; for TTTAATTGG: 1 ± 0.048.
As for TGGTGGCGTT, the switch fluorescence ratio is 1.026 ± 0.0082.
The same measure for ACCAGCCTGG: 1.01 ± 0.025.
The same measure for GGGTGCCCTA: 0.986 ± 0.051; for GGAGTAACAT: 1.04 ± 0.012; for TTTAACGAAT: 1.09 ± 0.099.
On to CGGGGGAACG, for which the switch fluorescence ratio turned out to be 1.01 ± 0.048.
The same measure for ATGGCTTCGT: 1.03 ± 0.021; for AACAGGCGAT: 0.985 ± 0.034; for CCAAGGGGTT: 1.01 ± 0.03.
The value for TGATCCAGGG was 0.9873 ± 0.0081.
The same measure for ATTGTTCCGT: 1.02 ± 0.021; for TGTTTTTGGA: 1 ± 0.026.
With AGGAGAAGAC, the switch fluorescence ratio is 1.03 ± 0.049.
In the case of AAAGGTTTGT, the switch fluorescence ratio worked out at 1.02 ± 0.024.
The same measure for ACATGGATAA: 1.012 ± 0.0044; for ACGAGGCTTC: 1.294 ± 0.0082; for ATGCACCTCG: 1.025 ± 0.006.
The same measure for GGTTCAGTG: 0.9936 ± 0.0079; for CAGCGGCGGA: 0.981 ± 0.029; for ACTCGGGGAG: 1 ± 0.013.
The same measure for CTCGGGTGGT: 0.997 ± 0.061; for ATCATGGAGG: 0.993 ± 0.017; for GCGACCATCC: 1.8 ± 0.08.
On to TTGCTGGCGG, for which the switch fluorescence ratio amounted to 1 ± 0.038.
The same measure for ATTAACTGGG: 1.01 ± 0.023; for TATGGAATGG: 0.997 ± 0.046; for AAATCTTTAT: 1.01 ± 0.032.
The value for GCTCATGGTT was 1.03 ± 0.046.
The value for TTGCTAATCA was 1 ± 0.04.
With TATTGAGTTA, the switch fluorescence ratio worked out at 1.01 ± 0.033.
The value for CTGATTTTCC was 1.01 ± 0.061; that for AATTTATAAT was 1.01 ± 0.036; that for CGCGCAGAT was 1.02 ± 0.025.
The same measure for CGTTTTTCGG: 0.971 ± 0.0087.
The value for AGCGGCTCGC was 1.007 ± 0.0047; that for TAGGGGAGAT was 1.027 ± 0.0098.
For GTTTTGGCTT, the switch fluorescence ratio was 0.983 ± 0.021.
The value for TTACTTGAGG was 1.11 ± 0.13; that for ACTTTTGAAA was 0.994 ± 0.014; that for TACCCTTTTT was 1.01 ± 0.054.
In the case of ATGGCAGGTA, the switch fluorescence ratio was determined as 0.992 ± 0.033.
The value for CTTCTTGTTT was 1.008 ± 0.0037.
The value for CGAGATGGGT was 0.974 ± 0.028; that for TCTGAGCGGC was 0.9349 ± 0.0037; that for ACGGGCAGAG was 1.02 ± 0.013.
The value for AAGGGAGGGC was 0.96 ± 0.032; that for GAGGGGGGGT was 1.08 ± 0.34; that for GGGATTTTCT was 1.011 ± 0.0091.
For the sequence CGTACAATGG, the switch fluorescence ratio worked out at 1.28 ± 0.088.
The same measure for TCAAATGGTA: 1.006 ± 0.0037; for ACGAGGGAGC: 1.05 ± 0.017.
The value for GGATTGTATT was 1.02 ± 0.0055.
Regarding AGTGTTCGTC, the switch fluorescence ratio amounted to 1.05 ± 0.011.
The same measure for GGTTAAGCCT: 1.05 ± 0.043; for GACCCAGGTA: 2.75 ± 0.18.
